Data on nine molecules can be found in patent US20180066015A1, “INHIBITORS OF GROWTH FACTOR ACTIVATION ENZYMES” (Washington University, published 2018).

The target of test [1] is Ac-Ala-Arg-Leu-P1-ACC, P1 = Gly (G).
Test [2] concerns the target Ac-Ala-Arg-Leu-P1-ACC, P1 = L-Ala (A).
Test [3] has as its target Ac-Ala-Arg-Leu-P1-ACC, P1 = L-Asn (N).
Test [4] addresses Ac-Ala-Arg-Leu-P1-ACC, P1 = L-Asp (D).
Test [5] has as its target Ac-Ala-Arg-Leu-P1-ACC, P1 = L-Gln (Q).
Test [6] concerns the target Ac-Ala-Arg-Leu-P1-ACC, P1 = L-Glu (E).
For test [7], the target named is Ac-Ala-Arg-Leu-P1-ACC, P1 = L-His (H).
Test [8] addresses Ac-Ala-Arg-Leu-P1-ACC, P1 = L-Ile (I).
Test [9] deals with Ac-Ala-Arg-Leu-P1-ACC, P1 = L-Leu (L).
In test [10] the target is Ac-Ala-Arg-Leu-P1-ACC, P1 = L-Lys (K).
For test [11], the target named is Ac-Ala-Arg-Leu-P1-ACC, P1 = L-Met (M).
The target of test [12] is Ac-Ala-Arg-Leu-P1-ACC, P1 = L-Phe (F).
Test [13] addresses Ac-Ala-Arg-Leu-P1-ACC, P1 = L-Pro (P).
Test [14] concerns the target Ac-Ala-Arg-Leu-P1-ACC, P1 = L-Ser (S).
For test [15], the target named is Ac-Ala-Arg-Leu-P1-ACC, P1 = L-Thr (T).
For test [16], the target named is Ac-Ala-Arg-Leu-P1-ACC, P1 = L-Trp (W).
The target in test [17] is Ac-Ala-Arg-Leu-P1-ACC, P1 = L-Tyr (Y).
In test [18] the target is Ac-Ala-Arg-Leu-P1-ACC, P1 = L-Val (V).
Another test concerns the target T1, Boc-QAR-AMC.
T1 sequence (peptide, N-terminal Boc; C-terminal AMC): QAR

Test [19] has as its target Hepatocyte Growth Factor Activator (HGFA) serine protease domain, N-terminal His-tag, recombinant (Homo sapiens (Human)) (UniProt Q04756).
The target of test [20] is Recombinant human hepsin (4776-SE-010, R&D Systems), activated (human) (UniProt P05981).
The target of test [21] is T2, matriptase (Charles Craik, UCSF), recombinant (Homo sapiens (Human)) (UniProt Q9Y5Y6).
T2 sequence: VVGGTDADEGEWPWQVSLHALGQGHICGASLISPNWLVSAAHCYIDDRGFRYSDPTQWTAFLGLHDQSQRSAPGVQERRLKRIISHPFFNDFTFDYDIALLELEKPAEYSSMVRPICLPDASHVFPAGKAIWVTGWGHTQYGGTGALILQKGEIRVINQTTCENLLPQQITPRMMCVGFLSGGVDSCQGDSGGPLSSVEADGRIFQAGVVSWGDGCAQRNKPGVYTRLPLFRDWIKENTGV

Test [22] deals with Hepatocyte Growth Factor Activator (HGFA) serine protease domain, N-terminal His-tag, recombinant (Homo sapiens (Human)) (UniProt Q04756). The source holds these as a separate data set.
The target is the same in test [23]. In words: fluorogenic inhibition assay.
Test [24] has as its target T3, matriptase (Charles Craik, UCSF), recombinant (Homo sapiens (Human), UniProt Q9Y5Y6).
T3 sequence: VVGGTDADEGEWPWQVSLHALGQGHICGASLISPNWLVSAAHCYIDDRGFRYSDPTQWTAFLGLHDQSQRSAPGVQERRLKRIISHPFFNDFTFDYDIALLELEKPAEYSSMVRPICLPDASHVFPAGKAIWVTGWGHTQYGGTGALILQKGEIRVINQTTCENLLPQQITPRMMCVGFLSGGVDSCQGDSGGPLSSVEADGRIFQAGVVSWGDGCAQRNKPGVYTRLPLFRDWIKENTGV
In words: fluorogenic inhibition assay. How it is done: (§1) Inhibitors (11-pt serial dilutions, 0-20 μM final concentration in reaction) were serially diluted in DMSO (2% DMSO final concentration) and then mixed with either recombinant serine protease domain of HGFA [Z. Han, P. K. Harris, D. E. Jones, R. Chugani, T. Kim, M. Agarwal, W. Shen, S. A. Wildman, J. W. Janetka, Acs Med Chem Lett 2014, 5, 1219-1224], matriptase (Charles Craik, UCSF) or hepsin* (#4776-SE-010, R&D Systems, Minneapolis, Minn.) in black 384 well plates (Corning #3575. Corning, N.Y.). […] The final substrate concentrations for all assays were at the Kₘ for the respective enzymes. Changes in fluorescence (excitation at 380 nm and emission at 460 nm) were measured at room temperature over time in a Biotek Synergy 2 plate reader (Winnoski, Vt.). Using GraphPad Prism version 6.04 software program, (GraphPad Software, San Diego, Calif., www.graphpad.com), a four parameter curve fit was used to determine the inhibitor IC₅₀s from a plot of the mean reaction velocity versus the inhibitor concentration. The IC₅₀ values represent the average of three separate experimental determinations.

In test [25] the target is T4, Recombinant human hepsin (4776-SE-010, R&D Systems), activated (human, UniProt P05981). In words: fluorogenic inhibition assay. How it is done:
as §1

In test [26] the target is Factor Xa. Kind of test: chromogenic inhibition assay.
In test [27] the target is recombinant thrombin. In words: chromogenic inhibition assay.
Test [28] has as its target Hepatocyte Growth Factor Activator (HGFA) serine protease domain, N-terminal His-tag, recombinant (Homo sapiens (Human)) (UniProt Q04756). In words: fluorogenic inhibition assay. This is another data set of the same source.
Test [29] addresses T3, matriptase (Charles Craik, UCSF), …. Kind of test: fluorogenic inhibition assay. The source holds these as a separate data set.
The target of test [30] is Factor Xa. In words: selectivity inhibition assay.
In a further test the target is Trypsin. In words: selectivity inhibition assay.
In test [31] the target is recombinant thrombin. Kind of test: selectivity inhibition assay.
In test [32] the target is Hepatocyte Growth Factor Activator (HGFA) serine protease domain, N-terminal His-tag, recombinant (Homo sapiens (Human)) (UniProt Q04756). Kind of test: fluorogenic inhibition assay. The source holds these as a separate data set.
Test [33] has as its target T3, matriptase (Charles Craik, UCSF), …. Kind of test: fluorogenic inhibition assay. This is another data set of the same source.
In test [34] the target is T4, Recombinant human hepsin (4776-SE-010, …). Kind of test: fluorogenic inhibition assay. This is another data set of the same source.

Like-named read-outs stand apart in the source and are kept apart here. Primed or numbered codes have the meaning given here. *: point of attachment. Kbt = ketobenzothiazole, c1ccc2sc(*)nc2c1; kt = C-terminal ketothiazole, c1csc(*)n1; kt″ = ketothiazole, c1csc(*)n1

Consider “Recombinant human hepsin (4776-SE-010, R&D Systems), activated (from UniProt P05981) (enzyme)”, for which the % activity, P1 position with Ac-Ala-Arg-Leu-Arg-ACC is 100%; in test [1], 0.07%; in test [2], 0.49%; in test [3], 0%; in test [4] it was 0%; in [5] it was 0%. Moreover, the % activity, P1 position came out at 0.13% in test [6]; 0.17% in [7]; 0.08% in [8]; 0.03% in test [9]; 2.34% in test [10]; 0% in test [11]. In addition, the % activity, P1 position in test [12] came out at 0.12%; in [13], 0.04%; in test [14] it was 0.2%; in test [15] it was 0.45%; in test [16], 0.7%; in test [17], 0.3%. The molecule also returned a % activity, P1 position in [18] of 0%. Further, the Km of fluorogenic substrate in the test with Boc-QAR-AMC amounted to 156 µM.

B1: Ac-KRLR(SEQ ID NO: 8)-kt (peptide)
peptide: Ac-KRLR-kt
SMILES: CC(=O)N[C@@H](CCCCN)C(=O)N[C@@H](CCCNC(=N)N)C(=O)N[C@@H](CC(C)C)C(=O)N[C@@H](CCCNC(=N)N)C(=O)c1nccs1
Regarding B1, the IC50 of enzyme inhibition in test [19] came out at 225 nM; in test [20], 5 nM; in test [21], 14 nM. Further, in test [22], the EC50 of inhibition of c-MET phosphorylation (Y1234/1235) in MDA-MB-231 cells treated with pro-HGF/HGFA reactions came to 180 nM. In addition, the values for the Ki in test [23], in [24] and in test [25] were 12 nM, 1.1 nM and 0.57 nM, respectively.

B2: matriptase (Charles Craik, UCSF), recombinant (enzyme)
chain: VVGGTDADEGEWPWQVSLHALGQGHICGASLISPNWLVSAAHCYIDDRGFRYSDPTQWTAFLGLHDQSQRSAPGVQERRLKRIISHPFFNDFTFDYDIALLELEKPAEYSSMVRPICLPDASHVFPAGKAIWVTGWGHTQYGGTGALILQKGEIRVINQTTCENLLPQQITPRMMCVGFLSGGVDSCQGDSGGPLSSVEADGRIFQAGVVSWGDGCAQRNKPGVYTRLPLFRDWIKENTGV
Consider B2, for which, in the test with Boc-QAR-AMC, the Km of fluorogenic substrate came to 93 µM.

B3: Ac-SKLR(SEQ ID NO: 10)-kt (peptide)
peptide: Ac-SKLR-kt
SMILES: CC(=O)N[C@@H](CO)C(=O)N[C@@H](CCCCN)C(=O)N[C@@H](CC(C)C)C(=O)N[C@@H](CCCNC(=N)N)C(=O)c1nccs1
As to B3, the IC50 of enzyme inhibition in test [19] amounted to 560 nM; in [21], 48 nM. The Ki was 3060 nM with Factor Xa [26]; over 20000 nM in the test with recombinant thrombin [27]; 81 nM in test [23]; 58 nM in test [24]; 1.2 nM in test [25].

B4: Ac-SKFR(SEQ ID NO: 13)-kt (peptide)
peptide: Ac-SKFR-kt
SMILES: CC(=O)N[C@@H](CO)C(=O)N[C@@H](CCCCN)C(=O)N[C@@H](Cc1ccccc1)C(=O)N[C@@H](CCCNC(=N)N)C(=O)c1nccs1
Consider B4, for which the IC50 of enzyme inhibition in test [19] turned out to be 520 nM; in test [20] it was 51 nM; in [21] it was 34 nM. The Ki with Factor Xa [26] was 530 nM; with recombinant thrombin [27], over 2000 nM; in test [23], 57 nM; in [24], 3.03 nM; in [25], 8.5 nM.

B5: Ac-KQLR(SEQ ID NO: 1)-kt (peptide)
peptide: Ac-KQLR-{kt″}
SMILES: CC(=O)N[C@@H](CCCCN)C(=O)N[C@@H](CCC(N)=O)C(=O)N[C@@H](CC(C)C)C(=O)N[C@@H](CCCNC(=N)N)C(=O)c1nccs1
Regarding B5, the IC50 of enzyme inhibition in test [19] was determined as 445 nM; in test [20], 2 nM; in [21] it was 5 nM. Further, the Ki in the test with Factor Xa [26] was 170 nM; with recombinant thrombin [27] it was over 20000 nM; in [23], 70 nM; in test [28], 53 nM; in test [24] it was 1.6 nM; in test [25], 0.19 nM.

B6: Ac-SWLR(SEQ ID NO: 17)-kt (peptide)
peptide: Ac-SWLR-kt
SMILES: CC(=O)N[C@@H](CO)C(=O)N[C@@H](Cc1c[nH]c2ccccc12)C(=O)N[C@@H](CC(C)C)C(=O)N[C@@H](CCCNC(=N)N)C(=O)c1nccs1
For the molecule B6, the IC50 of enzyme inhibition worked out at 435 nM in test [19], 9 nM in [20] and 175 nM in [21]. The inhibition constant (Ki) with Factor Xa [26] is 759 nM; in the test with recombinant thrombin [27], 3700 nM; in test [23], 63 nM; in test [28], 66 nM; in test [29], 66 nM; in [24], 69 nM. In addition, in [25], the Ki came to 1.2 nM.

B7: Ac-RQLR(SEQ ID NO: 6)-kt (peptide)
peptide: Ac-RQLR-kt
SMILES: CC(=O)N[C@@H](CCCNC(=N)N)C(=O)N[C@@H](CCC(N)=O)C(=O)N[C@@H](CC(C)C)C(=O)N[C@@H](CCCNC(=N)N)C(=O)c1nccs1
Take B7: the IC50 of enzyme inhibition in test [19] worked out at 270 nM; in [20] it was 1 nM; in [21] it was 1 nM. Also, the Ki in the test with Factor Xa [26] was 8.1 nM; in the test with recombinant thrombin [27] it was over 20000 nM; in test [23] it was 60 nM; in test [24], 0.32 nM; in test [25], 0.28 nM.

B8: Ac-KQLR(SEQ ID NO: 1)-Kbt (peptide)
peptide: Ac-KQLR-Kbt
SMILES: CC(=O)N[C@@H](CCCCN)C(=O)N[C@@H](CCC(N)=O)C(=O)N[C@@H](CC(C)C)C(=O)N[C@@H](CCCNC(=N)N)C(=O)c1nc2ccccc2s1
For the molecule B8, the Ki in [23] is 30 nM; with Factor Xa [30] it was 129 nM; with Trypsin, 0.24 nM; in the test with recombinant thrombin [31], over 20000 nM; in [33], 0.55 nM; in [34] it was 0.09 nM. In test [32], the fold change of potency against thiazole 5 is 2 fold.

As usually defined, the Ki is the dissociation constant of the complex between target and ligand, obtained from inhibition or displacement.
